Experimental data from paper PMC2908218.

Target: conventional myosin (Caenorhabditis elegans) (UniProt P02566)
Test: ELISA

Chain of UniProt P02566 (P02566 whole entry): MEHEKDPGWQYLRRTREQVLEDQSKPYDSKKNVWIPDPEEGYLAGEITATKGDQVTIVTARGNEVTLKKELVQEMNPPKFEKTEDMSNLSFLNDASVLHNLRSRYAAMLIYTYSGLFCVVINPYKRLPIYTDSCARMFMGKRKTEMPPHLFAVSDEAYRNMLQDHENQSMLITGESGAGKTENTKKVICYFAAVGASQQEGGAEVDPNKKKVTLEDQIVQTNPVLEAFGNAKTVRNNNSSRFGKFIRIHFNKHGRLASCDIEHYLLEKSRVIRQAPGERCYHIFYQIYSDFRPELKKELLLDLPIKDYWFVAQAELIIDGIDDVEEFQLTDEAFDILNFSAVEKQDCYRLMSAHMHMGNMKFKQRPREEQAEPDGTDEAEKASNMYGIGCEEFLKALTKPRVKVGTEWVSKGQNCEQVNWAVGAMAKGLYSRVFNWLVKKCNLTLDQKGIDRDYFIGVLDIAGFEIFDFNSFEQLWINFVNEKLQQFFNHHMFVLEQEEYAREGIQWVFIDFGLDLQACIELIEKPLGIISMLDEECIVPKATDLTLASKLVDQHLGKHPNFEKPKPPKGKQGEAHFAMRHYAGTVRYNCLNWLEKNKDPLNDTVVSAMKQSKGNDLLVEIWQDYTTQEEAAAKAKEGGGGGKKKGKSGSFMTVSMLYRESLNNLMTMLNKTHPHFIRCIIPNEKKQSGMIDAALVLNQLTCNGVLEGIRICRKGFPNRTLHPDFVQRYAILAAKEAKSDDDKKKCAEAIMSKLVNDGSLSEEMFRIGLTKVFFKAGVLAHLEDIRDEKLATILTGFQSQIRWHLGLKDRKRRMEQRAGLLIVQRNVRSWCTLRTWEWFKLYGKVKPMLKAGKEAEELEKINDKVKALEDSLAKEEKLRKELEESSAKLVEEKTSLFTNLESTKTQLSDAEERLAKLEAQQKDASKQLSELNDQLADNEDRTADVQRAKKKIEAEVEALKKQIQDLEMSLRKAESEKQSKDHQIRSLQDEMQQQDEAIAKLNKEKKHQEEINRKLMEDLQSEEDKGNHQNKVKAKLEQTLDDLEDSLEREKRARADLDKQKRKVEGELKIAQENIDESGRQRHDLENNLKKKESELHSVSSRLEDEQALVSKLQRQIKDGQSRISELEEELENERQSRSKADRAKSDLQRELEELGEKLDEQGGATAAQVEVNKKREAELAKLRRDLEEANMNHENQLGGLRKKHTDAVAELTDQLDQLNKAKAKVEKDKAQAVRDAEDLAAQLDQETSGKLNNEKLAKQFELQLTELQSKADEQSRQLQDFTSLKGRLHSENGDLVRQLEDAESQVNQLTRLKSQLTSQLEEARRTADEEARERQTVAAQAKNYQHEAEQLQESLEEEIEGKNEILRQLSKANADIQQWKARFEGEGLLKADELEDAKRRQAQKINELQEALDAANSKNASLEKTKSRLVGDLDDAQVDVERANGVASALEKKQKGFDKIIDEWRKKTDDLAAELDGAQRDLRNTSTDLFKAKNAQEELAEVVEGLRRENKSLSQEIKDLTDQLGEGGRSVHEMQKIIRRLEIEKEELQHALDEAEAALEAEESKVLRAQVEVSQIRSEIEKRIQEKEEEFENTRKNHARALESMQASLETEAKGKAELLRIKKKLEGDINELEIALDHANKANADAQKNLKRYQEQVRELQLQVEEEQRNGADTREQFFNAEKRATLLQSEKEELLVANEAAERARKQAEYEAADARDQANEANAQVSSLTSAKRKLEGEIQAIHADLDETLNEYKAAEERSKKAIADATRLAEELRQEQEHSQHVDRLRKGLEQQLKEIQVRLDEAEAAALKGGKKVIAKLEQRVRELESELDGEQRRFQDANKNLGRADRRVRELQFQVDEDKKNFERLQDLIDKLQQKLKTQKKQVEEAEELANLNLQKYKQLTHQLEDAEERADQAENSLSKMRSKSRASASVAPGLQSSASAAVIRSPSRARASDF

Kd: 1.5 nM
Substance: TTN-1 fragment 11/12 Ig38-Ig39-Ig40 (from UniProt G4SLH0)
